Experimental data taken from the DeepSol protein solubility set.

Assay: soluble on expression in E. coli; label from the status in PepcDB or PDB records

| Sequence | soluble on expression in E. coli |
| --- | --- |
| MGSDKIHHHHHHMSESAIADFVSSFIPDTATHVEPVRGRVVMSKRRIVLAADDEKTTIPLNGVFDVQHETAPGDLARFFEDTVTIAYEHDEDRHVAVIEGGGSTVDRFVTLVFKALVHGTTVYAKHPARRGGRITDQPFEKGNLALSPGDLTITGDADTTIDLSTVSHFERVDREVNGSNKQLLSVRHMGSTGPITTELALSSGRKMNLLGRYIRLQYTHLKQELADVTLTSEEIEALVAIYSSGPNASLAAVLGVDASRVTMLLNDLIEKELVTDDDGIALTSLGRAAVSEHIEDVNL | not soluble |
| MIKLFTDSDLDGIGCGLLAKLAFAEVNISFCSYRNLDERVVQFLQSDEANGAMLFITDLAVGKEVEQQLAERAARGGHVQVIDHHVTALHFNDYPWGQVVPVRDDGKKTCATSLFYDYLVREGKLAPNETLDGFVELVRQYDTWEWEENGNLQAKRLNDLLTIFGLDGFWETMSERLASREPFSLTETEELLLDMEEKKIQRYIRQKQKQLVQRWLGDYCIGVVFAERHLSELGNALSKRYPHLDLIALVNMGTKHIGFRTIHDDVNVAEFAQQFGGGGHPKASGCLIDDTTFPLFVVETFPLLPVYGDAEQNQLNKKDEAEGVFWTNHHGQWWLSRKTAQGWSVYADGGETHTFPEEIAGERWLKRQFAAGLAHDAAVLDFLSVRLGRDKDAIQADYKAAVKQYKQQTGIES | not soluble |
| MTLLTVKHLTITDTWTDQPLVSDVNFTLTKGETLGVIGESGSGKSITCKSIIGLNPERLGVTGEIIFDGTSMLSLSESQLKKYRGKDIAMVMQQGSRAFDPSTTVGKQMFETMKVHTSMSTQEIEKTLIEYMDYLSLKDPKRILKSYPYMLSGGMLQRLMIALALALKPKLIIADEPTTALDTITQYDVLEAFIDIKKHFDCAMIFISHDLTVINKIADRVVVMKNGQLIEQGTRESVLHHPEHVYTKYLLSTKKKINDHFKHVMRGDVHD | not soluble |
| MTWNPLALATALQTVPEQNIDVTNSENALIIKMNDYGDLQINILFTSRQMIIETFICPVSSISNPDEFNTFLLRNQKMMPLSSVGISSVQQEEYYIVFGALSLKSSLEDILLEITSLVDNALDLAEITEEYSHLEHHHHHH | soluble |
| MPSAHSVKLRPLEREDLRYVHQLDNNASVMRYWFEEPYEAFVELSDLYDKHIHDQSERRFVVECDGEKAGLVELVEINHVHRRAEFQIIISPEYQGKGLATRAAKLAMDYGFTVLNLYKLYLIVDKENEKAIHIYRKLGFSVEGELMHEFFINGQYRNAIRMCIFQHQYLAEHKTPGQTLLKPTAQ | soluble |
| MATLFIADLHLCAEEPAITAGFLRFLAGEARKADALYILGDLFEAWIGDDDPNPLHHQMAAAIKAVSDSGVPCYFIHGNRDFLLGKRFARESGMTLLPEEKVLELYGRRVLIMHGDTLCTDDAGYQAFRAKVHKPWLQTLFLALPLFVRKRIAARMRANSKEANSSKSLAIMDVNQNAVVSAMEKHQVQWLIHGHTHRPAVHELIANQQTAFRVVLGAWHTEGSMVKVTADDVELIHFPF | soluble |
| MGSDKIHHHHHHMAVSSLAGLGLRREMLAEFSQSVPAQIDFFEVAPENWMALGGKYGKQFRALTERHAFFCHGLSLSIGSSAPLDIDFIKGIKAFLDLHGIAVYSEHLSYCSGSGHLYDLMPMPFTPEAVRHIAGRVKQVEDIIERPLILENISFYAAPGAQMTELEFVLAVLEEADCQLLLDVNNIYVNSINHNYDAAAYLAAMPTERIRYLHVAGHYVEAPDLIVDTHGADIVDPVWQLLCDCYALHGPLPTLLERDFNIPPIGELLQEIDRIRDYQAAAIRTSRRAG | not soluble |
| PGRLHNAIVRPRVLDLLQHATCYKLVLFRSPAGYGKTTMAAQWLADKPNLGWYSIDDSDNDPFRFMNYLLQAINKATHN | not soluble |
| MGSDKIHHHHHHMLKKYLISLDKDIQRRELFFSQKNTEDFQVFSAINTMQKDWDELAAIFNIEQFKAHYFRNVTKGEIGCTLSHLSVYQKIVEDNDIAEDSYALVCEDDALFHSDFQQNLTALLSEKLEAEIILLGQSKINDFNDFDLEINYPTTFSFLCKKTGDVNYAFPYKSYFAGTVGYLIKKSAARRFIQQISQNKPFWLADDFLLFEQNFNIRNKVVRPLIVIENPVLISNLESVRGSLSNNLLKKLMKYPLKKIFAIKKNLAN | not soluble |
| PDLLIELFSEEIPARMQARAREDLKKLVTDGLVEAGLTYASAGAFSTPRRLVLSVEGLSAESPTLREERKGPKADAPAAAIEGFLRSTGLTRDQLETREDKKGAVLFAVVEKPGRRAPDIVAEVLERTIRTFPWPKSMRWGTGSLRWVRPLHSILCLLSDEAGSQVVPVTVDQVTAVNTTEGHRFMAPGRFAVTGFDDYRAKLQRALVMLDAAEREQAIWHEATTQAFAQGLEVVPDAGLLAEVAGLVEWPVVLMGPIGEEFLGLPPEVLQTSMREHQKFFSVRNPATGRIEKFVTVANRETADHGATILKGNAKVLSARLSDASFFWENDRRTVQTVGLEGMAAGLAHVTFHNKLGSQADRIARIEALAREIAPLVGASPDLAAEAARVAKADLQSAMVGEFPELQGTMGSYYARAAGLPEPVALACKAHYQPLGPSDAVPTDPVSVAVALADKIDTLTGFWAIDEKPTGSKDPFALRRAALGVVRLLLMNGLRLSLLNQVRFAHGCLAEQFNSRFNFFVQIREEPKEAVNIGVGHRYPEVVSDQCTSILMGYVENPVESVASGKFTIDGRAVGTKP | not soluble |
| MELINKDTLQIKEFISSLDSMLDGIESIVKHYKPHLNGERFLSNNEVSKKLNVSLRTLQEWRDTGLIPFIQIKGKIIYRQSDIDKLLQKHYFEGWKE | not soluble |
| MELSRGASAPDPDDVRPLKPCLLRRNHSRDQHGVAASSLEELRSKACELLAIDKSLTPITLVLAEDGTIVDDDDYFLCLPSNTKFVALACNEKWTYNDSDGGTAWVSQESFEADEPDSRAGVKWKNVARQLKEDLSSIILLSEEDLQALIDIPCAELAQELCQSCATVQGLQSTLQQVLDQREEARQSKQLLELYLQALEKEGNILSNQKESKAALSEELDAVDTGVGREMASEVLLRSQILTTLKEKPAPELSLSSQDLESVSKEDPKALAVALSWDIRKAETVQQACTTELALRLQQVQSLHSLRNLSARRSPLPGEPQRPKRAKRDSS | soluble |
| MGHHHHHHSHCDKCEGRGGKKGAVECCPNCRGTGMQIRIHQIGPGMVQQIQSVCMECQGHGERISPKDRCKSCNGR | soluble |
| MKKVSPSYLKHQFLIAMPHMHDENFAQTLTYVVEHNANGAMGLVINRPQSLTLADVLEQLRPELPAPKRCQEIAIHAGGPVQTDRGFVLHPSGQTFQATVDLPGGISLSTSQDVLFSIADGYGPDQNVITLGYAGWDAGQLDAEMADNAWLTCSFDPAILFDVDSDQRLDAAARRLGINLALISTQAGHAAAALEHHHHHH | not soluble |
| MGSDKIHHHHHHMVLVVDYGSQYSRLITRRIRENEVYSEVVFPDDKVDLSKVDAVILSGGPRSVYEEDAPKLPEWFQEYKGPVLAICYGMQLIVKELGGEVRRGRGEYGRTLVELSRDPIFEGIPEKVHVWMSHGDEVVRLPEGFHPIAVSETGVIAAATDGKRFWLLQFHPEVHHTEYGDRMISNFLFNVCKLEKNWKIGDLVEEKIRHIKETIGNKKAILALSGGVDSSVAAVLVHRAIGKNLVCVFVDHGLLRKNEREEVERVFKEHFDMNLVVVDARKRFLEKLRGVTDPEKKRKIIGEEFIRVFEEEAKKHDVEFLVQGTIYSDVIESAASGKTTAKIKSHHNVGGLPEKMNLKLVEPLRDLFKDEVRKVGKYLGIPDRIINRHPFPGPGLAVRVLGEVTEEKLEILREADYIFIETLRKHDYYDKVWQAFAVLLPIKSVGVKGDARAYEYVVALRAVNSVEGMTADWSRIPHDILDEAARRITREVKGVGRVVYDITSKPPATIEWE | not soluble |
| PVHAVGIGPGNLDFLTPRGEEAIREADVVVGFETVVEFVADRTDADLLTCGYRDELDTLDAFAERVAGGERGTAVAMGDPNHSGYQFVGKVQRAVDRPVRIVPGI | not soluble |
| MGSDKIHHHHHHMSQILQNFIKQAQYNPLHSLEEWEEDLLNRYPDPHSIVKEGKTTQEYRNYETPTRETVKEFYRLNHINQTYNFVLEKEKNFLKFDKKEMSVWDAVEFLNQLVDDSDPDTEMDQLQHLLQTSEAIRADGHPDWMVLTGFFHDMGKVLCLFGEPQWATVGDTYPVGCAFSDKIVFSEFFQENPDYNNPNYNTKYGIYEPNCGLINVHISWGHDEYFYQMMKNYLPEPALYMLRYHSFYPQHRENAYKHLMDNHDREMFKWVKLFNPYDLYSKNPTPPDWQKLRPYYEDLVAKYLPATLKF | not soluble |
| MRVAIFTDTFTPQVNGVAKTLERLTRYFQKENIAYSVFAPQHTAEDNFVANVNKMRSIPLTILYPECRFSFPTPRIKRELLSFKPDIIHIATPFNMGLCGLYYAKKLNIPVVGSYHTDFDAYLRYYKIEFLSNMLWNYLKWFHSHMQKNFVPSPETLHQLKHKGFQALSIWGRGVDCNLFHPAYNTDLFRKKYNITAKYVLSYIGRIAPEKDIDTLQNLIVKSTHTRNDIHWLIAGDGPLATNLRETVPQTNVTFTGYLQGGDLAEAYACSNLMVFPSATETFGNVVLESLACGTPVIGANSGGVKNIITDGKTGVLCPPKNEDAFLSSIYFLLQNEEKLKQMGIAALSYAKSKSWDEIFRGLLNEYEEVLQHNASELLALEHHHHHH | not soluble |
| MRSELCCCRAVKRAAPEESIEEDDSYEDSDLEEGGSSYDEGTVDSESSAEDQEDKDVPVSEKKKRKLPSDVTEGKTVFIRNLSFDSEEEALGEVLQQFGDLKYVRVVLHPDTEHSKGCAFAQFMTQEAAQKCLAAASLEAEGGGLKLDGRQLKVDLAVTRDEAAKLQTKKVKKPTGTRNLYLAREGLIRAGTKAAEGVSAADMAKRERFELLKHQELKNQNIFVSQTRLCLHNLPKAVDDKQLRKLLLEATRGEKGVRIKECRVMRDLKGVHGKMKGQSLGYAFAEFQKHEHALRALRHFNNNPEIFGSQKRPIVEFSLEDRRKLKVKELRIQRSLQKMESKPVTSKPQKEQKEVGKDKQQKAVQSATQDQSKAPGEQKGKAGSTSWTGFQTKAEVEQVELPDGKKRRKVLALPSHRGPKIRLRDKGKVKSLPSRKPKPQMGQRKQKKQQLASSVQAPKRKAKENKAEARFNQLVEQYKQKLLGPSKGAPLMKRSKWFDS | soluble |
| MNKIHLCTLAVLTSLSFSSLAKDCDANLLPSWKDSDSKTAIVNFVEQSTDSSKATFIPVSDRIAVFDNDGTLWSEKPIYFQIAFALDQIKALAKTHPEWKTQEPFKSVIENDLEKVFAGGKESLLQIMKVTHSGMTVEEYQQSVEQWLAAAKDKRFGKAYNDLTFKPMREMLTYLQENNFKTYIVSGGGVDFMRVWAPEAYNIPEEQIIGSALKYEYSFNDGQPKVMKLGELLTLDDKEVKVENIQYIIGKKPVLAVGNSDGDQAMMQWATSQPNSMAMIVHHTDEAREWKYDRQSDVGRLDKALDEANERDNWQLIDMKNDWCAVY | not soluble |
| YLGEVYTAKTDDGVKIKLLRYHPPGEGVNDGVQPVVLFSGLLCNMNEYLTHTPPELKDLYKTQLPSELADWAVGDERIQQDPMLYYSLAYYLWKQGYDVWLVNYRGTGVGELKSGVGSARTSLDTWAIYDTKAAITKVYEVTGKHPVIGGHSTGGLVSYVYLQGAKFKWTFACLFKKPWCKKVVSDDDLVRERNGLTEGEETVVGVIALDPAMIPPLPKLTDLKLMWLLLDTPLYIDIRGIMNLIAKNDRLWCATTHTIDEVFELIFEMNEEYGQYSELIRDLTFTNPGNMNDELNDFLVRYVADSLYTPTLAHYNDFGTHRTAREYFENGGRSYLIVPPEPNPGKDGYYYYILNMQKVRVPFITLLSEYDALVEAEQIIRDLMEAKTPHQFDEYYIIEGTAHLDLPFGLKAPSEVFPKVGAWLEK | not soluble |
